For one assay, the target named is T1, huNotch2-EGF7-9 (human).
T1 chain: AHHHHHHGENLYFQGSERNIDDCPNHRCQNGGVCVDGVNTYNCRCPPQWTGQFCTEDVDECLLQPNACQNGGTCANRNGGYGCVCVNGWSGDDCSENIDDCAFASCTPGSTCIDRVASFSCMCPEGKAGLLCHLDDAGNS
As to the kind of experiment: SPR BIAcore, antibody captured on protein A, 37 C. How it is done: (§1) Binding of the anti-Notch2 antibodies to Notch2 from additional species and to constructs comprising different EGF repeat regions was evaluated by BIAcore™. For this experiment, the antibodies with human constant regions were captured on a protein A chip to achieve approximately 200 RU. Ten-fold serial dilutions of various antigens were injected in HIBS-P buffer with additional 3 mM CaCl₂ at 37° C. with a flow rate of 100 μL/min.
A general note: SPR reads the build-up and loss of mass on a sensor chip optically.

For the next assay, the target named is T2, huNotch2-EGF5-8 (human).
T2 chain: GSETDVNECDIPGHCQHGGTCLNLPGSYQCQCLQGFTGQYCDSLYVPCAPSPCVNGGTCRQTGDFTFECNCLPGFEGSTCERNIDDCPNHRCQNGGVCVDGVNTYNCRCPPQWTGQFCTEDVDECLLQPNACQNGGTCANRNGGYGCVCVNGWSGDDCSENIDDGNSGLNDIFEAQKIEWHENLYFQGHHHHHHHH
As to the kind of experiment: SPR BIAcore, antibody captured on protein A, 37 C. As to the method:
as §1

The next assay has as its target T3, gpNotch2-EGF6-12 (guinea pig).
T3 construct: also called guinea pig Notch2 EGF6-12
T3 chain: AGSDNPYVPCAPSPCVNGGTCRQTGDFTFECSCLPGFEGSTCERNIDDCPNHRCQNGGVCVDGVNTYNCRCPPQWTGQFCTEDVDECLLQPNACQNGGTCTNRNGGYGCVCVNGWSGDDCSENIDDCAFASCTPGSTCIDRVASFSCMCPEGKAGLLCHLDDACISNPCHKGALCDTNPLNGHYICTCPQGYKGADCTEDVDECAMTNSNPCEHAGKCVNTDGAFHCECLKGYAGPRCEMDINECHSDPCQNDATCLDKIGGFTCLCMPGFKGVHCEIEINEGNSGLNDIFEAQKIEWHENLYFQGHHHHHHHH
Nature of the assay: SPR BIAcore, antibody captured on protein A, 37 C. How it is done:
as §1

The target in another assay is T4, huNotch2-EGF4-7 (human).
T4 chain: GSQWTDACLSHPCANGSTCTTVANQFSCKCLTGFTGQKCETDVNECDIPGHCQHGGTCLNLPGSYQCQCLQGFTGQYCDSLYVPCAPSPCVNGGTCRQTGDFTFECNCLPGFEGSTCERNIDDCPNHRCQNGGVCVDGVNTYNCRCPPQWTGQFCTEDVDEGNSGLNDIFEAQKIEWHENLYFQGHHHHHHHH
Nature of the assay: SPR BIAcore, antibody captured on protein A, 37 C. How it is done: as §1

Another assay deals with T5, muNotch2-EGF6-12.K268R (mouse).
T5 chain: T3 chain with N5S, S32N, F129Y, M148L, H183Q, T207A, I278L, I280V
As to the kind of experiment: SPR BIAcore, antibody captured on protein A, 37 C. As to the method: as §1

Assay [1] addresses T6, huNotch2-EGF6-10 (human, UniProt Q04721 219-418).
T6 construct: also called human Notch2 EGF6-10
T6 sequence: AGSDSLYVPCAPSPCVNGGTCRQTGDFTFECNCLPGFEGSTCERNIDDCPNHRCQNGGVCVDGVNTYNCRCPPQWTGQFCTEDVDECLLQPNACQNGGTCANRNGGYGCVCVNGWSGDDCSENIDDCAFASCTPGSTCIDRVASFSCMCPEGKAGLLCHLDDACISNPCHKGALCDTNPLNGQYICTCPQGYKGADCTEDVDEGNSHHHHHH
As to the kind of experiment: SPR BIAcore T200, antibody captured on protein A, 37 C. As to the method:
(§2) The binding affinities of the antibodies was determined by BIAcore™ T200 machine. Rabbit antibodies were expressed as chimeric antibodies with rabbit variable domains and human constant domains. Rat antibodies were expressed as chimeric antibodies with rat variable domains and human constant regions. Humanized antibodies were expressed in the human IgG1 backbone. For kinetics measurements, antibodies were captured on research grade protein A chip (GE Healthcare) to achieve approximately 300 RU. Ten-fold serial dilutions of huNotch2-EGF6-10 were injected in HBS-P buffer with additional 3 mM CaCl₂ at 37° C. with a flow rate of 100 μL/min. Association rates (ka) and dissociation rates (kd) were calculated using a 1:1 Langmuir binding model (BIAcore™ T200 Evaluation Software version 2.0). The equilibrium dissociation constant (KD) was calculated as the ratio kd/ka.

The target in assay [2] is T6, huNotch2-EGF6-10. Nature of the assay: SPR BIAcore, separate experiment, substantially as for Table 4. As to the method: as §2
In a separate experiment, the binding affinities of the humanized versions of the rat 3107 antibody were determined, substantially as described above.

Assay [3] deals with T7, human Notch2 on U-87 MG cells (human, UniProt Q04721 26-2471). As to the kind of experiment: cell-based or functional assay.
For assay [4], the target named is T7, human Notch2 on U-87 MG cells. Nature of the assay: cell-based or functional assay. The source holds these as a separate data set.
The target in the next assay is T8, huNotch3 (human).
T8 construct: The entry named huNotch3 is a tagged EGF-repeat fragment; also called human Notch3
T8 chain: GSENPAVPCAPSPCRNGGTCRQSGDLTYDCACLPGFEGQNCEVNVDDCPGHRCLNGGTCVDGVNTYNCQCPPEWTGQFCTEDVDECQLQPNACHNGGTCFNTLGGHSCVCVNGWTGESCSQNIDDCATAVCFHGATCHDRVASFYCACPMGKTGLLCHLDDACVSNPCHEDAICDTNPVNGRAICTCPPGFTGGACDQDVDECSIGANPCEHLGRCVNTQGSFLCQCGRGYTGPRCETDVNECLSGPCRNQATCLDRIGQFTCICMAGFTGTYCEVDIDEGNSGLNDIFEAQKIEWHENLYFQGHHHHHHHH
Nature of the assay: SPR.

Another assay has as its target T9, huNotch1 (human).
T9 construct: The entry named huNotch1 is a tagged EGF-repeat fragment; also called human Notch1
T9 chain: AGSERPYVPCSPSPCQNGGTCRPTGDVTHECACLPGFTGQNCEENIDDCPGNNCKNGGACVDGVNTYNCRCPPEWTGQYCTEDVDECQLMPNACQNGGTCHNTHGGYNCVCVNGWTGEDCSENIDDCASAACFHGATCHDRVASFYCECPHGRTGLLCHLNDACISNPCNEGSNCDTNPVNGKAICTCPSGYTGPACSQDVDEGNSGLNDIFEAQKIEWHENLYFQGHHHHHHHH
Nature of the assay: SPR.

From patent US20230322958A1 (Genentech, published 2023) come the findings set out here.

Residue numbers refer to the chain shown, from its start. Where two headings read alike, the source gives them in different places.

T7 sequence (Q04721 26-2471): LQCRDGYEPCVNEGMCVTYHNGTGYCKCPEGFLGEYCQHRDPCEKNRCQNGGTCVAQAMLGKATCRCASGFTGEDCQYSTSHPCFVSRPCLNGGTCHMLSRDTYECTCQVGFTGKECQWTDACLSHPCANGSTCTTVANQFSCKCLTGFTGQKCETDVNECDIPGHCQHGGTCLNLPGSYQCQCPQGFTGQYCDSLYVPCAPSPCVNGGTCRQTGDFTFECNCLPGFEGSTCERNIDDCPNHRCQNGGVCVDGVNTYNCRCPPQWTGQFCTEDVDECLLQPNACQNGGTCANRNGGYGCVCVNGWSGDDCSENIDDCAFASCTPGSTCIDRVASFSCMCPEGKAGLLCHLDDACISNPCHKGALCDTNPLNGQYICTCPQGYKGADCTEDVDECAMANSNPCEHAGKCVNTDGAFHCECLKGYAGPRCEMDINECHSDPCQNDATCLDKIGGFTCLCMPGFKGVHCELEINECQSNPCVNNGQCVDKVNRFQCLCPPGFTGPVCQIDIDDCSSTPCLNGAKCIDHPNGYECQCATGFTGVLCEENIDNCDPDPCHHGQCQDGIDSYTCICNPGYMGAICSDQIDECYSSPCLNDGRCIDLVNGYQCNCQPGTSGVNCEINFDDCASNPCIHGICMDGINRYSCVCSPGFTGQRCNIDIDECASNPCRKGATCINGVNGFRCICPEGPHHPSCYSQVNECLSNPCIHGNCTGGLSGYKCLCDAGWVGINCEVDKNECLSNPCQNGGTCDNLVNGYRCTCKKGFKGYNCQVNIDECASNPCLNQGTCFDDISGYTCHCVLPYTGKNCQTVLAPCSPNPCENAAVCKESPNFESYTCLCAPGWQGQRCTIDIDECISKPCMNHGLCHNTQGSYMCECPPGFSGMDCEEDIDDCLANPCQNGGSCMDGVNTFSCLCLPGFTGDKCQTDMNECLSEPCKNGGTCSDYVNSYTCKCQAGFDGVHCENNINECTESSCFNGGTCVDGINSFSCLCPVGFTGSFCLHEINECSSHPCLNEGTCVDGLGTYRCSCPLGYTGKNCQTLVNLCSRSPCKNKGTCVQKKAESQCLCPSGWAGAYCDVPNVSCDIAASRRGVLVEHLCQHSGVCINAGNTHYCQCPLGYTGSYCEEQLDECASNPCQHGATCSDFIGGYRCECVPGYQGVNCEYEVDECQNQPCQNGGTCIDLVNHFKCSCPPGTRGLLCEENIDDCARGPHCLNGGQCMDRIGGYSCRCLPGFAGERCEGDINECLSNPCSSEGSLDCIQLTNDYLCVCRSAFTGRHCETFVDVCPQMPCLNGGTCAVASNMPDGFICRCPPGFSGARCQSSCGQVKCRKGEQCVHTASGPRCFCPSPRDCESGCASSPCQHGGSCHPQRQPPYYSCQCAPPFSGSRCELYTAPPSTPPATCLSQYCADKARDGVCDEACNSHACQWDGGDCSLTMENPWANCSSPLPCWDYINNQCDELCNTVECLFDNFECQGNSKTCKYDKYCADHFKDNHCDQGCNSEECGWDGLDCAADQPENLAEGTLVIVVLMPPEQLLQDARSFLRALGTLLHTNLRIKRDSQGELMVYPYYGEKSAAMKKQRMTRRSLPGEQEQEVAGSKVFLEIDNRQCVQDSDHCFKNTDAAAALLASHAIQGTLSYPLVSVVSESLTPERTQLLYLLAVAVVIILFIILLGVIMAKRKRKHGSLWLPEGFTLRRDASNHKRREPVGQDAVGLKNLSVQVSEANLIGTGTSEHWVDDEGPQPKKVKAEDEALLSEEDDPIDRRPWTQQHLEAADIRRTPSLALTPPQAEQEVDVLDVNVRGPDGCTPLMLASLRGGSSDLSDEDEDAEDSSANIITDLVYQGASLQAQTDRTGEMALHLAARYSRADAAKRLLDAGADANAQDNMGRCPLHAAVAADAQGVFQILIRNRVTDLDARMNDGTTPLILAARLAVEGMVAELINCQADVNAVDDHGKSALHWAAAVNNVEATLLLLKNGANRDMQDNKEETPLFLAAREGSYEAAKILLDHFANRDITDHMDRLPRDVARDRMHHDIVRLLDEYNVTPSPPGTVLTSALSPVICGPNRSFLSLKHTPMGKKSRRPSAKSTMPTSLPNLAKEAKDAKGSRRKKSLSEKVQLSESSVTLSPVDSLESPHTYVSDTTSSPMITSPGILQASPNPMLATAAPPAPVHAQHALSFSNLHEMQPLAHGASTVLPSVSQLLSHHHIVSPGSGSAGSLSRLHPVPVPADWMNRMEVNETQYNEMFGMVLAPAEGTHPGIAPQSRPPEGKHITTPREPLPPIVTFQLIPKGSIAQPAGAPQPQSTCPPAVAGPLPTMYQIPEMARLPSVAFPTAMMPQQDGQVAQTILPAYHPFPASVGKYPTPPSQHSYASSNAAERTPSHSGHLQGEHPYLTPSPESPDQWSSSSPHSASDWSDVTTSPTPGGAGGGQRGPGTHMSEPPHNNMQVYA

B1: rat.3107 (rat/human chimeric anti-Notch2 antibody 3107) (antibody, V domains shown)
VH: QVQLQQSGAELAKSGSSVKISCKASGYTFSNYVIHWIKQTTGQAPEWTGYIIPGSGGTKFNEKFKGKATLTVDKSSTTAYMQLSSLTPVDTAVYYCARDGAGSFTYWGQGTLVTVSS
VL: DVLMTQTPVSLPVSLGGQVSISCRSSQSLVHSDGNTYLHWFLQKPGQSPQLLIYRISNRFSGVPDRFSGSGSGTDFTLKISRVEPEDLGVYYCLQSTHFPDTFGGGTKVEIK
Consider B1, for which the binding result with huNotch2-EGF7-9, with huNotch2-EGF5-8, in the assay with gpNotch2-EGF6-12, in the assay with huNotch2-EGF4-7 and with muNotch2-EGF6-12.K268R was “binds” in each case. In addition, the values for the Kd with huNotch2-EGF6-10 [1] and in the assay with huNotch2-EGF6-10 [2] were 5 nM and 9.12 nM, respectively. The koff (in general, the rate constant with which the complex falls apart) was determined as 0.00182 s⁻¹ with huNotch2-EGF6-10 [1] and 0.00312 s⁻¹ with huNotch2-EGF6-10 [2]. For the same molecule, the on-rate (kon) (in general, a measure of how fast the partners come together) in the assay with huNotch2-EGF6-10 [1] was found to be 363000 M⁻¹ s⁻¹; with huNotch2-EGF6-10 [2], 342000 M⁻¹ s⁻¹. Moreover, the “Jagged1 IC50” value was 4.88 nM in [3] and 2.1 nM in assay [4].

B2: hu1B2.v101 (antibody, V domains shown)
VH: EVQLVESGGGLVQPGGSLKLSCAVSGFTFSDFYMEWVRQASGKGLEWVAAQRNKANDFSIVYSASVKDRFTISRDDSKSTLYLQMNSLKTEDTAVYYCSRDGGRWGLDAWGQGTLVTVSS
VL: DIQMTQSPSSVSASVGDRVTITCQTSEDIYSGLAWYQQKPGKSPKLLIYGASRLQDGVPSRFSGSGSGTDYTLTISSLQPEDFATYYCQQGFKYPLTFGGGTKVEIK
notes: Human IgG1 backbone
Consider B2, for which, in the assay with huNotch2-EGF6-10 [1], the Kd (commonly the constant that tells how readily two partners part at equilibrium) came out at 2.84 nM, the koff worked out at 0.000813 s⁻¹ and the kon amounted to 286000 M⁻¹ s⁻¹. Also, in the assay with huNotch3, the binding result was “no binding”. Further, the binding result in the assay with huNotch1 is recorded as “no binding”. Also, the “Jagged1 IC50” value in assay [4] stood at 3.02 nM.

B3: hu1B2.v102 (antibody, V domains shown)
VH: B2 VH with W105L, G106A
VL: B2 VL
notes: Human IgG1 backbone
Turning to B3, the binding result with huNotch2-EGF7-9, in the assay with huNotch2-EGF5-8, in the assay with gpNotch2-EGF6-12, with huNotch2-EGF4-7 and with muNotch2-EGF6-12.K268R was “binds” each time. In the assay with huNotch2-EGF6-10 [1], the Kd was 3.37 nM. The koff with huNotch2-EGF6-10 [1] amounted to 0.00131 s⁻¹. Further, the kon with huNotch2-EGF6-10 [1] was determined as 387000 M⁻¹ s⁻¹. Further, the “Jagged1 IC50” value in assay [4] was found to be 1.59 nM.

B4: hu1B2.v103 (antibody, V domains shown)
VH: B2 VH with R104K
VL: B2 VL
notes: Human IgG1 backbone
As for B4, in the assay with huNotch2-EGF6-10 [1], the Kd worked out at 3.08 nM, the koff stood at 0.000817 s⁻¹ and the kon worked out at 265000 M⁻¹ s⁻¹. Further, in the assay with huNotch3, the binding result is on record as “no binding”. In the assay with huNotch1, the binding result is “no binding”. In [4], the “Jagged1 IC50” value worked out at 1.8 nM.

B5: hu1B2.v104 (antibody, V domains shown)
VH: B2 VH with R104K, W105L, G106A
VL: B2 VL
notes: Human IgG1 backbone; also called hu1B2.v014
In the case of B5, the binding result in the assay with huNotch2-EGF7-9, in the assay with huNotch2-EGF5-8, in the assay with gpNotch2-EGF6-12, in the assay with huNotch2-EGF4-7 and in the assay with muNotch2-EGF6-12.K268R was “binds” each time. The same molecule registered a Kd with huNotch2-EGF6-10 [1] of 3.09 nM. This molecule had a koff with huNotch2-EGF6-10 [1] of 0.0011 s⁻¹. For the same molecule, the kon with huNotch2-EGF6-10 [1] was 357000 M⁻¹ s⁻¹. In [4], the “Jagged1 IC50” value worked out at 2.48 nM.
